Laboratory results: US20230181672
Substitutions are numbered along the chain they refer to. Numbers in names are those of the source.

T1: Cps1 (Mmut-/-;TgMCKMmut)
T1 sequence (Q8C196 39-1500, looked up): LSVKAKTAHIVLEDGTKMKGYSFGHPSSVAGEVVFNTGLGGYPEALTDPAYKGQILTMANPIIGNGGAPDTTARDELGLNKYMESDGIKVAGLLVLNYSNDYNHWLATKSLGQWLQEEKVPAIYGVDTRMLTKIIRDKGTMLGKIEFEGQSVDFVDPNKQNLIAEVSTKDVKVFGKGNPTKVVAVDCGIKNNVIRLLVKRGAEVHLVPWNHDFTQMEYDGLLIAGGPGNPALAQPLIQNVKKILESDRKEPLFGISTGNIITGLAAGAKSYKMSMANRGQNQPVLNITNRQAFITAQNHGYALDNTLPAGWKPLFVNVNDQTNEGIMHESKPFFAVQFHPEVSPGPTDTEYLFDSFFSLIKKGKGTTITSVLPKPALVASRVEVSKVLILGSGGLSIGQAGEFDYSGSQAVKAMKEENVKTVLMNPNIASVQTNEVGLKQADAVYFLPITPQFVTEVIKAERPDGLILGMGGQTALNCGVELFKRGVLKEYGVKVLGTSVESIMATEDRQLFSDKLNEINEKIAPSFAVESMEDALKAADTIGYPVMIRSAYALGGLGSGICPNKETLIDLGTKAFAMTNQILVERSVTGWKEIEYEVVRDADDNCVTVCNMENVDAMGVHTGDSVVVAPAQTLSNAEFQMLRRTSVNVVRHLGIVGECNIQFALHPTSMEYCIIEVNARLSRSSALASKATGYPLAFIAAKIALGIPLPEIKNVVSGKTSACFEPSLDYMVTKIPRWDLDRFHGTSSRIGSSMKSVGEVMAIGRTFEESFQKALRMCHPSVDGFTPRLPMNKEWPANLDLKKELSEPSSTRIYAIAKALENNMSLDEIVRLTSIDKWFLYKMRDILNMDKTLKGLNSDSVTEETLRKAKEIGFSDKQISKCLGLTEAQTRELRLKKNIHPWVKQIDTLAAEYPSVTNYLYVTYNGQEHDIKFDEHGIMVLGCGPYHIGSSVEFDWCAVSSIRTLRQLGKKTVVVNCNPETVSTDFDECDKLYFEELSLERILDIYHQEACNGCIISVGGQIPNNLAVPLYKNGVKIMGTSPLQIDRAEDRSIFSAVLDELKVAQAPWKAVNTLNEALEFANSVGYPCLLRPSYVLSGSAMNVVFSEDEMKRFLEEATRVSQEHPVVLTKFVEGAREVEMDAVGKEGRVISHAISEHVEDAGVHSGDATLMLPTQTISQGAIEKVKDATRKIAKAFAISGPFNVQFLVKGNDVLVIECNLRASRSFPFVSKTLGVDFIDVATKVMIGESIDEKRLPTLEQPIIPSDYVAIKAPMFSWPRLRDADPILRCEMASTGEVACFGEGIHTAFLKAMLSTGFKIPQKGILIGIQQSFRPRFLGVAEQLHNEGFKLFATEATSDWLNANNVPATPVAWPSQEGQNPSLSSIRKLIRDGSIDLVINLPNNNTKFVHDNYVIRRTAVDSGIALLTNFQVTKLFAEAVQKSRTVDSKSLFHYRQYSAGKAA

B1: FLAG-SIRT1 (Addgene, 1791) (protein)
chain: MADEAALALQPGGSPSAAGADREAASSPAGEPLRKRPRRDGPGLERSPGEPGGAAPEREVPAAARGCPGAAAAALWREAEAEAAAAGGEQEAQATAAAGEGDNGPGLQGPSREPPLADNLYDEDDDDEGEEEEEAAAAAIGYRDNLLFGDEIITNGFHSCESDEEDRASHASSSDWTPRPRIGPYTFVQQHLMIGTDPRTILKDLLPETIPPPELDDMTLWQIVINILSEPPKRKKRKDINTIEDAVKLLQECKKIIVLTGAGVSVSCGIPDFRSRDGIYARLAVDFPDLPDPQAMFDIEYFRKDPRPFFKFAKEIYPGQFQPSLCHKFIALSDKEGKLLRNYTQNIDTLEQVAGIQRIIQCHGSFATASCLICKYKVDCEAVRGDIFNQVVPRCPRCPADEPLAIMKPEIVFFGENLPEQFHRAMKYDKDEVDLLIVIGSSLKVRPVALIPSSIPHEVPQILINREPLPHLHFDVELLGDCDVIINELCHRLGGEYAKLCCNPVKLSEITEKPPRTQKELAYLSELPPTPLHVSEDSSSPERTSPPDSSVIVTLLDQAAKSNDDLDVSESKGCMEEKPQEVQTSRNVESIAEQMENPDLKNVGSSTGEKNERTSVAGTVRKCWPNRVAKEQISRRLDGNQYLFLPPNRYIFHGAEVYSDSEDDVLSSSSCGSNSDSGTCQSPSLEEPMEDESEIEEFYNGLEDEPDVPERAGGAGFGTDGDDQEAINEAISVKQEVTDMNYPSNKS
B2: methylmalonylated K4R mutated SIRT5-FLAG (protein)
chain: SSSMADFRKFFAKAKHIVIISGAGVSAESGVPTFRGAGGYWRRWQAQDLATPLAFAHNPSRVWEFYHYRREVMGSREPNAGHRAIAECETRLGKQGRRVVVITQNIDELHRRAGTRNLLEIHGSLFKTRCTSCGVVAENYKSPICPALSGKGAPEPGTQDASIPVEKLPRCEEAGCGGLLRPHVVWFGENLDPAILEEVDRELAHCDLCLVVGTSSVVYPAAMFAPQVAARGVPVAEFNTETTPATNRFRFHFQGPCGTTLPEALACHENETVSEFGGDYKDDDDK
B3: propionylated SIRT5-FLAG (protein)
chain: B2 chain with R43K, R76K, R112K, R116K
B4: SIRT5-FLAG (Addgene, 13816) (protein)
chain: B2 chain with R43K, R76K, R112K, R116K
B5: K4R mutated SIRT5-FLAG (protein)
chain: B2 chain

How the values were obtained:
[1] = target: methylmalonylated BSA, P02769
methylmalonylated BSA, P02769, sequence (P02769 25-607): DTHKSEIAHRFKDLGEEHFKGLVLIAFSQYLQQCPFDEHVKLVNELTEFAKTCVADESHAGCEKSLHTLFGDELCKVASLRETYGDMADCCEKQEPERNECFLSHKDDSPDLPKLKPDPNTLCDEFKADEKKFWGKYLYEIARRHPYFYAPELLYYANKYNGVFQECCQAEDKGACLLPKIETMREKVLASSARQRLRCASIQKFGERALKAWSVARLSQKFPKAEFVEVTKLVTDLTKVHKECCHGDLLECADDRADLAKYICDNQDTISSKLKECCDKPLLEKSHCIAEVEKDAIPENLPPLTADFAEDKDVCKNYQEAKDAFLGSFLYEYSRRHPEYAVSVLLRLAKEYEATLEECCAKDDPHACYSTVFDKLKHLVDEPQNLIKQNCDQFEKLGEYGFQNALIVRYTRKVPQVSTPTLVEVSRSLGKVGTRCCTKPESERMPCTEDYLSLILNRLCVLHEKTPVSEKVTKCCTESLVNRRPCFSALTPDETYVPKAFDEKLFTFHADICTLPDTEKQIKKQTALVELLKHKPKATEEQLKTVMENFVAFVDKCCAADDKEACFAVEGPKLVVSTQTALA

[2] = target: propionylated BSA, P02769
propionylated BSA, P02769, sequence (P02769 25-607): as above

[3] = target: T1, Cps1 (Mmut-/-;TgMCKMmut)

| Protein | removal of methylmalonylation from methylmalonylated BSA (in vitro deacylation assay, Western blot) [1] | depropionylation of propionylated BSA (in vitro deacylation assay, Western blot) [2] | stated: methylmalonylation of immunoprecipitated Cps1 reduced (AP42053 immunoblot) [3] |
| --- | --- | --- | --- |
| B1 | SIRT1 (FIG. 13A) and SIRT5 (FIG. 13B) were the most effective at removing methylmalonylation from the methylmalonylated BSA substrates |  |  |
| B2 | SIRT5 K4R did not exhibit enzymatic inhibition after hyper-methylmalonylation/acylation modifications |  |  |
| B3 |  | this activity is impaired when SIRT5 is propionylated |  |
| B4 |  | SIRT5 mediates the depropionylation of BSA substrate |  |
| B5 | mutant SIRT5 K4R had the ability to remove methylmalonylation from BSA regardless of whether SIRT5 K4R was acylated or not |  | AP42053 bands at about 150 kDa are faint in the 2 SuperSIRT5-AAV Mmut-/- lanes and clear in the 2 GFP-AAV Mmut-/- lanes, with like Cps1 bands; the FLAG blot of the extracts shows SuperSIRT5-FLAG below 37 kDa only in the SuperSIRT5-AAV lanes |
